Like-named read-outs stand apart in the source and are kept apart here.
T1: cynomolgus monkey GITR expressed on HT1080 cells (cynomolgus monkey)
T1 chain: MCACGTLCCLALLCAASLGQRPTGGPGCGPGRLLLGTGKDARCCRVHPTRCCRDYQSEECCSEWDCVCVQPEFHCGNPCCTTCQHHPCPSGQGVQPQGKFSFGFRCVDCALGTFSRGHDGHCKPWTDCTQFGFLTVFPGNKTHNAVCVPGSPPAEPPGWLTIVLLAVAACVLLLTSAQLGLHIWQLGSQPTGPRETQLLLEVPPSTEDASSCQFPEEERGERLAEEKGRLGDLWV

T2: human GITR expressed on cells (human, UniProt Q9Y5U5 26-241)
T2 sequence: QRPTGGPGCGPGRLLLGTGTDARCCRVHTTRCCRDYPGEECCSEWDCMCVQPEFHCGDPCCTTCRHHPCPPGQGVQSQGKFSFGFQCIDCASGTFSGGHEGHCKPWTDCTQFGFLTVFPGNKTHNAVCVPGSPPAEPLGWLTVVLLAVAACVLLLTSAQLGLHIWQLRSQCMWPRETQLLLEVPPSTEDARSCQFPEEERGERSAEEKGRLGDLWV

T3: cyno GITR-Fc (cynomolgus monkey)
T3 construct: also called cGITR; cynomolgus GITR
T3 chain: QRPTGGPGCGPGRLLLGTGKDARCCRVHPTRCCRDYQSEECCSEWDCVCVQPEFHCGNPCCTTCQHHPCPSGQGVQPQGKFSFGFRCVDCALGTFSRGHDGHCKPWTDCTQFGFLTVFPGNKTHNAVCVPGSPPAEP

T4: human GITR-Fc (human, UniProt Q9Y5U5 26-162)
T4 construct: also called recombinant hGITR; wild type human GITR-Fc
T4 sequence: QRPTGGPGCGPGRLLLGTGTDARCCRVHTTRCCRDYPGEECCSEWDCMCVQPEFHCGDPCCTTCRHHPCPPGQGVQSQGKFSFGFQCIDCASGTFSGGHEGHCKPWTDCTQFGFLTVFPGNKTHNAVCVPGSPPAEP


What was measured:
[1] = target: T1, cynomolgus monkey GITR expressed on …; assay: cell-based or functional assay
[2] = target: T2, human GITR expressed on cells; assay: cell-based or functional assay
[3] = target: T2, human GITR expressed on cells; assay: cell-based or functional assay; remark: listed apart in the source
[4] = target: T1, cynomolgus monkey GITR expressed on …; assay: cell-based or functional assay
[5] = target: T2, human GITR expressed on cells; assay: cell-based or functional assay; remark: listed apart in the source
[6] = target: T2, human GITR expressed on cells; assay: cell-based or functional assay; remark: listed apart in the source
[7] = target: T1, cynomolgus monkey GITR expressed on …; assay: cell-based or functional assay
[8] = target: T2, human GITR expressed on cells; assay: cell-based or functional assay; remark: listed apart in the source
[9] = target: T3, cyno GITR-Fc; assay: BLI Octet RED384, ABP on AHQ sensor, 100 nM antigen, single concentration;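 further: association and dissociation each tracked over 180 s, with dissociation run in antigen-free buffer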
Method: (§1) The sensors were quenched by dipping into an unrelated human IgG1 antibody to prevent non-specific binding of GITR-Fc antigens to the sensor. The sensors were equilibrated in assay buffer for 30 minutes. Baseline was established by dipping the sensors into assay buffer for 60 seconds. Association was monitored for 180 seconds in 100 nM of recombinant antigens, and dissociation was followed for 180 seconds in buffer alone. KD was determined using the kinetic function of the FORTEBIO® Analysis Software using a 1:1 binding model.

[10] = target: T4, human GITR-Fc; assay: as above
Method: as §1

[11] = target: T2, human GITR expressed on cells; assay: cell-based or functional assay; remark: listed apart in the source
[12] = target: T1, cynomolgus monkey GITR expressed on …; assay: cell-based or functional assay

| Binder | Kd [10] [nM] | EC50 in human HT1080 (IL-8 induction), n = 2 [11] [nM] | EC50 in cynomolgus HT1080 (IL-8 induction), n = 1 [12] [nM] | Kd [9] [nM] | other results |
| --- | --- | --- | --- | --- | --- |
| trimeric human GITR ligand (ligand, UniProt Q9UNG2 50-177, looked up) QLETAKEPCMAKFGPLPSKWQMASSEPPCVNKVSDWKLEILQNGLYLIYGQVAPNANYNDVAPFEVRLYKNKDMIQTLTNKSKIQNVGGTYELHVGDTIDLIFNSEHQVLKNNTYWGIILLANPQFIS | – | – | – | – | EC50 in cynomolgus HT1080 (IL-8 induction) [1]: 0.2 nM; EC50 in human HT1080 (IL-8 induction) [2]: 0.4 nM; Average EC50 in human HT1080 (IL-8 induction) [3]: 0.37 nM; Average EC50 in cynomolgus HT1080 (IL-8 induction) [4]: 0.17 nM; Average EC50 in human HT1080 (IL-8 induction) [5]: 0.43 nM; EC50, Jurkat cells expressing human GITR (run with ABP 1) [6]: 0.9 nM; EC50, Jurkat cells expressing human GITR (run with ABP 2) [6]: 0.91 nM; EC50, Jurkat cells expressing human GITR (run with ABP 3) [6]: 0.85 nM; EC50, Jurkat cells expressing human GITR (run with ABP 4) [6]: 1.13 nM; EC50, Jurkat cells expressing human GITR (run with ABP 5) [6]: 1.01 nM; EC50, Jurkat cells expressing human GITR (run with ABP 6) [6]: 0.9 nM; EC50, Jurkat cells expressing human GITR (run with ABP 7) [6]: 0.81 nM; EC50, Jurkat cells expressing human GITR (run with ABP 8) [6]: 0.89 nM; Average EC50 in cynomolgus HT1080 (IL-8 induction) [7]: 0.076 nM; Average EC50 in human HT1080 (IL-8 induction) [8]: 0.12 nM |
| ABP49 (antibody, human IgG1, kappa, N297A, V domains shown, IgG1 N297A, H1H2-optimized, non-TM) VH: QVQLQESGPGLVKPSQTLSLTCTVSGGSISSGGAVWSWIRQHPGKGLEWIGGIAYSGSTYYNPSLKSRVTISVDTSKNQFSLKLSSVTAADTAVYYCARDSVRGYGDYGGHHAFDIWGQGTMVTVSS VL: not shown | 63.5 | 2.7 | 65.8 | – | binding result [9]: no binding (tested: 100 nM) |
| ABP42 (antibody, human IgG1, kappa, N297A, V domains shown, IgG1 N297A, non-optimized, non-TM) VH: QLQLQESGPGLVKPSETLSLTCTVSGGSISSSSYAWGWIRQPPGKGLEWIGSIYYSGSTYYNPSLKSRVTISVDTSKNQFSLKLSSVTAADTAVYYCARDSGRGYGDYGGHHAFDIWGQGTMVTVSS VL: not shown | 11.5 | 17.8 | – | – | binding result [9]: no binding (tested: 100 nM) |
| ABP41 (antibody, human IgG1, kappa, N297A, V domains shown, IgG1 N297A, bivalent; also called non-TM ABP corresponding to ABP8) VH: QVQLQESGPGLVKPSETLSLTCAVSGYSISSEYMWGWIRQPPGKGLEWIGLIYHSGKTYYNPSLKSRVTISVDTSKNQFSLKLSSVTAADTAVYYCAREADRGYGDYGGHHAFDIWGQGTMVTVSS VL: DIQMTQSPSSLSASVGDRVTITCGASQSISTYLNWYQQKPGKAPKLLIYSASSLESGVPSRFSGSGSGTDFTLTISSLQPEDFATYYCQQEYNTPPSFGGGTKVEIKR | 2.3 | – | – | 6.9 | Average EC50 in cynomolgus HT1080 (IL-8 induction) [4]: 2 nM; Average EC50 in human HT1080 (IL-8 induction) [5]: 0.44 nM |
| ABP20 (antibody, human IgG4 S228P, kappa, TM format, N-terminal Fab: VH + IgG1 CH1 + GGGGS + VH + IgG4 S228P) heavy: not shown light: DIQLTQSPSSVSASVGDRVTITCRASQGISSWLAWYQQKPGKAPKLLIYGASSLQSGVPSRFSGSGSGTDFTLTISSLQPEDFATYYCQQASLFPPTFGGGTKVEIKRTVAAPSVFIFPPSDEQLKSGTASVVCLLNNFYPREAKVQWKVDNALQSGNSQESVTEQDSKDSTYSLSSTLTLSKADYEKHKVYACEVTHQGLSSPVTKSFNRGEC | 4.4 | – | – | 5.2 | Average EC50 in human HT1080 (IL-8 induction) [3]: 0.63 nM |
| ABP45 (antibody, human IgG1, kappa, N297A, V domains shown, IgG1 N297A, H1H2-optimized, non-TM) VH: QVQLVQSGAEVKKPGSSVKVSCKASGGTFSRGAISWVRQAPGQGLEWMGGIIPIEGTAYYAQKFQGRVTITADESTSTAYMELSSLRSEDTAVYYCARQSDYGLPRGMDVWGQGTTVTVSS VL: DIQLTQSPSSVSASVGDRVTITCRASQGISSWLAWYQQKPGKAPKLLIYGASSLQSGVPSRFSGSGSGTDFTLTISSLQPEDFATYYCQQASLFPPTFGGGTKVEIKR | 112 | 10.5 | 15.1 | – | – |

Further lines, with some results ahead:

| Kd [10] [nM] | EC50 in human HT1080 (IL-8 induction), n = 2 [11] [nM] | EC50 in cynomolgus HT1080 (IL-8 induction), n = 1 [12] [nM] | Kd [9] [nM] | Binder | other results |
| --- | --- | --- | --- | --- | --- |
| 14.8 | 0.8 | – | – | ABP48 (antibody, human IgG1, kappa, N297A, V domains shown, IgG1 N297A, H1H2-optimized, non-TM) VH: QVQLQESGPGLVKPSETLSLTCAVSGYSISSEYMWGWIRQPPGKGLEWIGLIYHSGKTYYNPSLKSRVTISVDTSKNQFSLKLSSVTAADTAVYYCARDSGRGYGDYGGHHAFDIWGQGTMVTVSS VL: not shown | binding result [9]: no binding (tested: 100 nM) |
| 5.1 | – | – | 5.1 | ABP26 (antibody, human IgG4 S228P, kappa) heavy: not shown light: DIQLTQSPSSVSASVGDRVTITCRASQGISSWLAWYQQKPGKAPKLLIYGASSLQSGVPSRFSGSGSGTDFTLTISSLQPEDFATYYCQQASLFPPTFGGGTKVEIKRTVAAPSVFIFPPSDEQLKSGTASVVCLLNNFYPREAKVQWKVDNALQSGNSQESVTEQDSKDSTYSLSSTLTLSKADYEKHKVYACEVTHQGLSSPVTKSFNRGEC | Average EC50 in human HT1080 (IL-8 induction) [3]: 0.63 nM |
| 46.5 | 4.2 | 28 | – | ABP44 (antibody, human IgG1, kappa, N297A, V domains shown, IgG1 N297A, H1H2-optimized, non-TM) VH: QVQLVQSGAEVKKPGSSVKVSCKASGGTFSSYYISWVRQAPGQGLEWMGGIIPVPGTANYAQKFQGRVTITADESTSTAYMELSSLRSEDTAVYYCARAGGGYARGDHYYGMDVWGQGTTVTVSS VL: not shown | – |
| 59.8 | 1.2 | 6.9 | 111 | ABP46 (antibody, human IgG1, kappa, N297A, V domains shown, IgG1 N297A, H1H2-optimized, non-TM) VH: QVQLVQSGAEVKKPGSSVKVSCKASGGTFSSYAISWVRQAPGQGLEWMGGIIPISGFANYAQKFQGRVTITADESTSTAYMELSSLRSEDTAVYYCAREGGHYYSGWPYWGQGTLVTVSS VL: EIVLTQSPATLSLSPGERATLSCRASQSVSSYLAWYQQKPGQAPRLLIYDASNRATGIPARFSGSGSGTDFTLTISSLEPEDFAVYYCQQRLVFPPTFGGGTKVEIKR | – |
| 44.3 | 4.1 | 11.8 | 88.1 | ABP47 (antibody, human IgG1, kappa, N297A, V domains shown, IgG1 N297A, H1H2-optimized, non-TM) VH: QVQLVQSGAEVKKPGSSVKVSCKASGGTFVRYAISWVRQAPGQGLEWMGGIIPIFGEAQYAQKFQGRVTITADESTSTAYMELSSLRSEDTAVYYCAREGYYYGALPYWGQGTLVTVSS VL: EIVLTQSPATLSLSPGERATLSCRASQSVSSYLAWYQQKPGQAPRLLIYDASNRATGIPARFSGSGSGTDFTLTISSLEPEDFAVYYCQQHSVFPPTFGGGTKVEIKR | – |
